Measurements published in PMC11487272 (Nature Communications, 2024).
Each block holds one binder with its values, some of them ahead of it.

Legend:
[1] = target: T1, His-tagged full-length FADD F25Y (UniProt Q13158 1-208, F25Y); experiment: pull-down
T1 sequence: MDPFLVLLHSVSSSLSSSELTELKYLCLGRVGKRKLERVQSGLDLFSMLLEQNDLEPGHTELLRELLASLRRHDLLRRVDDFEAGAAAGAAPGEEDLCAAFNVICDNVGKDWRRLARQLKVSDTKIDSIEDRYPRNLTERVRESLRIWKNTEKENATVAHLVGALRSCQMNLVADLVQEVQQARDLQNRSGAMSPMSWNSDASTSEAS

[2] = target: wild-type cFLIP^tDED (residues 1-181) (UniProt O15519 1-181); experiment: crystal structure
[3] = target: full-length Casp-8 F122G/L123G/C360A/D374A/D384A (UniProt Q14790 1-479, F122G | L123G | C360A | D374A | D384A); experiment: co-purification
[4] = target: the molecule itself; experiment: cryo-EM structure

binding result [1]: binds
B1: binary CF^H7G-C8^FGLG complex, His-tag removed, SEC-purified (complex)
chain 1: […]
chain 2: MDFSRNLYDIGEQLDSEDLASLKFLSLDYIPQRKQEPIKDALMLFQRLQEKRMLEESNLSFLKELLFRINRLDLLITYLNTRKEEMERELQTPGRAQISAYRVMLYQISEEVSRSELRSFKGGLQEEISKCKLDDDMNLLDIFIEMEKRVILGEGKLDILKRVCAQINKSLLKIINDYEEFSKER

binding result [2]: binds
B2: Casp-8^tDED_FGLG (procaspase-8 tandem DED, residues 1-185, F122G/L123G) (domain or fragment)
chain: MDFSRNLYDIGEQLDSEDLASLKFLSLDYIPQRKQEPIKDALMLFQRLQEKRMLEESNLSFLKELLFRINRLDLLITYLNTRKEEMERELQTPGRAQISAYRVMLYQISEEVSRSELRSFKGGLQEEISKCKLDDDMNLLDIFIEMEKRVILGEGKLDILKRVCAQINKSLLKIINDYEEFSKER

binding result [3]: binds
B3: His-tagged full-length FADD F25G (natural protein)
chain: MDPFLVLLHSVSSSLSSSELTELKGLCLGRVGKRKLERVQSGLDLFSMLLEQNDLEPGHTELLRELLASLRRHDLLRRVDDFEAGAAAGAAPGEEDLCAAFNVICDNVGKDWRRLARQLKVSDTKIDSIEDRYPRNLTERVRESLRIWKNTEKENATVAHLVGALRSCQMNLVADLVQEVQQARDLQNRSGAMSPMSWNSDASTSEAS
stoichiometry N [4]: 3 molecules in the complex
